According to US7109167:
Values belong to the binder of their own block, whether it stands above or below them. No end group written: not given here. Oregon Green (5-isomer) = Oregon Green fluorescent label, 5-isomer

Key:
[1] = biological target: T1, NP-1/Fc (Neuropilin-1/Fc, R&D Systems); test: competition of 125I-VEGF165 binding to plate-coated NP-1/Fc
T1 construct: Bought reagent; also called Npn-1
Experimental: An assay buffer consisting of Hank's Balanced Salt Solution (HBSS), 25 mM HEPES, and 0.1% BSA, pH 7.4 was used, and for all experiments, Assay volume per well was 75 µl. Plates (Nunc MaxiSorp white opaque Microtiter plate [C-bottom, 437796]) were coated by incubating the wells with 75 µl of a solution containing 3 µlg/mL NP-1/Fc in D-PBS/0.1% NaAzide overnight at 4° C. after covering with sealing tape (Dynex, VWR Cat. No. 62402-931). The next day all wells, even control wells lacking NP-1/Fc, were blocked 2 hrs with blocking buffer (1% BSA in D-PBS with 0.05% v/v Tween-20) then washed 4× with PBST (D-PBS/0.05% v/v Tween-20) before starting the assay. All points were derived from triplicate wells, and for each set of replicates in NP-1/Fc-coated wells, a companion set in the absence of the receptor was included. […] After addition of the appropriate solutions, microtiter plates were incubated at 4° C. for 2 hours. Following the incubation, plates were hand-washed 5 times with D-PBS containing 0.05% Tween-20 and 0.1% BSA. The plates were blotted dry and 25 µl deionized water and 100 µl scintillation fluid (Optiphase SuperMix, Wallac) were added to each well.

[2] = biological target: T1, NP-1/Fc (Neuropilin-1/Fc, R&D Systems); test: fluorescence polarization, labeled ligand (5-20 nM) titrated with NP-1/Fc, 37 °C
Experimental: FP values (mP) for each substrate was measured by titrating the ligand (5–20 nM) with receptor protein using a Jolley Research and Consulting FPM-1 fluorescence Polarization analyzer. In each of these experiments the observed polarization values were plotted against receptor concentration. The mP values for 100% binding of tracer labeled ligand to receptor protein was calculated using the software provided by the vendor.
Figure 3: FIG. 3: Binding of TKPPR (SEQ ID NO: 2) derivatives with NP-1/Fc by Fluorescence Polarization. The indicated Oregon Green-labeled derivatives were incubated with increasing concentrations of NP-1 and polarization was measured. […] Figure 4: FIG. 4: Binding of TKPPR (SEQ ID NO: 2) derivatives with KDR-Fc by FP.

[3] = biological target: T1, NP-1/Fc (Neuropilin-1/Fc, R&D Systems); test: fluorescence polarization competition against labeled BRU-326 on NP-1/Fc

T1 sequence (Q9QWJ9 22-855): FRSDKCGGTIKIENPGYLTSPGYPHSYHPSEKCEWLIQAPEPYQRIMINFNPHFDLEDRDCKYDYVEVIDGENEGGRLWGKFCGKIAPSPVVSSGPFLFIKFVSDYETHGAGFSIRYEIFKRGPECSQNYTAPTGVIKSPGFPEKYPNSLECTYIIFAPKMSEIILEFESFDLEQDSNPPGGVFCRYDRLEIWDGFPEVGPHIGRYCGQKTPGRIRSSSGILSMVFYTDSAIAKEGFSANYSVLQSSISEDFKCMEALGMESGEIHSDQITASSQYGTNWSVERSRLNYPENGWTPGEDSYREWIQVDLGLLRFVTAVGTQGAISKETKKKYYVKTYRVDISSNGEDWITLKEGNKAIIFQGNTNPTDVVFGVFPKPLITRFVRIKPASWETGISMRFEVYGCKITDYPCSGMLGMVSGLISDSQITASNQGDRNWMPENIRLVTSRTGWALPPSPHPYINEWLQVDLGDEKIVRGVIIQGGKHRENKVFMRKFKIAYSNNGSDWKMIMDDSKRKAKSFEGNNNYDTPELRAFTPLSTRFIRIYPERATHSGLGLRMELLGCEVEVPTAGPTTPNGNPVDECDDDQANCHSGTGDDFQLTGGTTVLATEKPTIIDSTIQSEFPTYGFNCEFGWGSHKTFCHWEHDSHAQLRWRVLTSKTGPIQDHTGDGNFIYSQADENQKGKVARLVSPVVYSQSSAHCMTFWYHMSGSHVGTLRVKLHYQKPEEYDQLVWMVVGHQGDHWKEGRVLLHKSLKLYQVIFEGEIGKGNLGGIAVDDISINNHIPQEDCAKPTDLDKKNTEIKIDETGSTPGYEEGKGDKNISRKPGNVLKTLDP

B1: TKPPR tetramer BRU-326, OG-(TKPPR)4 (peptide)
peptide: TKPPR-OH
modifications: not fully specified (N-terminus); printed as OG-(TKPPR)4; also: tetramer: four TKPPR chains joined via branched tetra-acid scaffold
notes: free C-terminal Arg on each arm; also called tetrameric TKPPR
IC50 [1]: 130 nM | Kd [2]: 25 to 50 nM

Binder: {Oregon Green (5-isomer)}-GTKPPR-OH (also called OG-TKPPR; OG-TKPPR monomer) [BRU-239, Oregon Green (5-isomer)-GTKPPR-OH]
IC50 [1]: 30000 nM

Further binders by falling IC50 [1], results first:

IC50 [1]: 43000 nM | IC50 [3]: 80000 nM
Binder: TKPPR-OH (also called BRU-95; TKPPR-OH) [TKPPR (L-threonyl-L-lysyl-L-prolyl-L-prolyl-L-arginine), free monomeric peptide]

IC50 [1]: 3000 nM
B3: TKPPR dimer BRU-317, OG-(TKPPR)2 (peptide)
peptide: TKPPR
modifications: not fully specified (N-terminus); printed as OG-(TKPPR)2; also: dimer on branched scaffold with one Oregon Green label

IC50 [1]: 0.5 nM | IC50 [3]: 200 nM
B2: VEGF165 (ligand, UniProt P15692-4 27-191, looked up)
chain: APMAEGGGQNHHEVVKFMDVYQRSYCHPIETLVDIFQEYPDEIEYIFKPSCVPLMRCGGCCNDEGLECVPTEESNITMQIMRIKPHQGQHIGEMSFLQHNKCECRPKKDRARQENPCGPCSERRKHLFVQDPQTCKCSCKNTDSRCKARQLELNERTCRCDKPRR
modifications: 125I label on the radioligand form
notes: Labelled and unlabelled forms and the different suppliers are kept as one molecule; also called unlabeled VEGF165
